The record followed here is paper PMC13480645 (PLOS Pathogens, 2026).

B1: eCC65.1-12 (antibody, V domains shown)
VH: EVQLVQSGAEVKKPGASVKVSCKASGYTFTSQYMHWVRQAPGQGLEWMGIIDPSGGGTSYAQKFRDRVSMTRDTPTSTVYMELRSLRSEDTAVYYCASLWFENPSWRDYWGQGTLVTVSS
VL: DVVMTQSPGTLSLSPGERATLSCRASQTVNKNYLAWYQQKPGQAPRLLIYHASSRATGIPDRFSGSGSGTDFTLTISRLEPEDFAVYYCQQYGASPPLFTFGPGTKLEIK
B2: eCC65.1-8 (antibody, V domains shown)
VH: VQLVQSGAEVKKPGASVKVSCKASGYEFTSQYMHWVRQAPGQGLEWMGIIDPSGGGASYAQKFRDRVSMTRDTPTSTVYMELRSLRSEDTAVYYCASLWFGNPSWRDYWGQGTLVTVSS
VL: VMTQSPGTLSLSPGERATLSCRASQTVNSNYLAWYQQKPGQAPRLLIYHASSRATGIPDRFSGSGSGTDFTLTISRLEPEDFAVYYCQQYQSSPPLFTFGPGTKLEIK
B3: eCC65.1-7 (antibody, V domains shown)
VH: B2 VH with E27S, A57T, G101E
VL: B2 VL with S29K, Q91G, S92A
B4: eCC65.1-11 (antibody, V domains shown)
VH: B2 VH
VL: B2 VL with Q25S, Q91G, S92A
B5: eCC65.1-9 (antibody, V domains shown)
VH: B2 VH with E27D, S53E, A57T, G101E, N102K
VL: B2 VL with N28T, Q91G, S93K
B6: eCC65.1-5 (antibody, V domains shown)
VH: B2 VH with S24T, E27T, A57T, L98I, G101E
VL: B2 VL with S29K, H49G, Q91G
B7: eCC65.1-2 (antibody, V domains shown)
VH: B2 VH with S24T, E27T, S53K, A57T, G101E, R106T
VL: B2 VL with S29K, Q91G
B8: eCC65.1-10 (antibody, V domains shown)
VH: B2 VH with E27D, A57T, G101E, R106S
VL: B2 VL with S29K, Q91G, S92A
B9: eCC65.1-4 (antibody, V domains shown)
VH: B2 VH with E27T, T29E, S53K, A57T, G101E, N102T
VL: B2 VL with S29K, H49G, Q89T, Q91G
B10: eCC65.1-13 (antibody, V domains shown)
VH: B1 VH
VL: B2 VL with S29K, H49G, Q91G, S92A
B11: eCC65.1-3 (antibody, V domains shown)
VH: B2 VH with E27T, S53E, A57T, G101E, N102Q
VL: B2 VL with S29K, Q91G, S92A
B12: eCC65.1-1 (antibody, V domains shown)
VH: B2 VH
VL: B2 VL with Q91G, S92A
B13: eCC65.1-6 (antibody, V domains shown)
VH: B1 VH
VL: B2 VL with S29K, Q91G

Substitutions are numbered along the chain they refer to.

The first assay deals with T1, SARS-CoV-2 S-2P protein (SARS-CoV-2, ancestral (Wuhan-Hu-1) …, UniProt P0DTC2, stabilised). Put plainly: cell-based or functional assay.
Conditions: not given
Take B1: the “IC50 of neutralisation of SARS-CoV-2 pseudovirus (HeLa-hACE2 cells)” value (“IC50” for short) came to 5.77 µg/mL.
For the molecule B2, the “IC50” value was 3.95 µg/mL.
Same read-out and setting: for B3 the value was 3.01 µg/mL.
With B4, the “IC50” value turned out to be 5.26 µg/mL.
B5: the “IC50” value was determined as 2.6 µg/mL.
Same read-out and setting: for B6 the value was 1.63 µg/mL; for B7, 2.05 µg/mL; for B8, 1.86 µg/mL.
Still for that read-out and setting: under B9 stands 1.84 µg/mL.
The same measure, in the same setting: for B10 the value was 2.41 µg/mL; for B11, 4.67 µg/mL.
Take B12: the “IC50” value was found to be 5.79 µg/mL.
B13: the “IC50” value was determined as 2.98 µg/mL.

The next assay deals with T1, SARS-CoV-2 S-2P protein. In words: BLI. The note with it: both partners purified.
As usually defined, the Kd is the equilibrium constant for the complex coming apart. As a reminder, the kon is the rate constant with which the complex forms. Higher therefore signals faster complex formation. Molecule B1 showed a dissociation constant Kd of less than 0.001 nM and a kon of 273000 M⁻¹ s⁻¹.
In the same order, the values of B2 are 0.945 nM and 258000 M⁻¹ s⁻¹.
The molecule B3 gave a Kd of 0.157 nM and an on-rate constant (kon) of 270000 M⁻¹ s⁻¹.
Take B4: binding was characterised by a dissociation constant (Kd) of 0.801 nM and the kon stood at 249000 M⁻¹ s⁻¹.
Regarding B5, the Kd came out at 0.0102 nM and the kon came to 306000 M⁻¹ s⁻¹.
In the same order, the values of B6 are less than 0.001 nM and 286000 M⁻¹ s⁻¹.
For B7, in that order: less than 0.001 nM and 283000 M⁻¹ s⁻¹.
For B8, in that order: less than 0.001 nM and 278000 M⁻¹ s⁻¹.
Turning to B9, the Kd stood at 0.0136 nM and the kon was found to be 287000 M⁻¹ s⁻¹.
B10 returned a Kd of 0.0819 nM and a kon of 256000 M⁻¹ s⁻¹.
On to B11, for which the Kd is less than 0.001 nM and the kon worked out at 289000 M⁻¹ s⁻¹.
Take B12: the Kd was 0.843 nM and the kon came out at 236000 M⁻¹ s⁻¹.
In the same order, the values of B13 are 0.0472 nM and 261000 M⁻¹ s⁻¹.
